B1: His-CRMP1-D408V (natural protein)
chain: not shown
B2: His-CRMP1 (collapsin response mediator protein 1, wild type) (natural protein)
chain: not shown

Molecular target: the molecule itself
Assay: native gel or EMSA

Protein | stoichiometry N
B1 | 4
B2 | 4

Source: publication PMC4417118 (Genome Research, 2015)
